From patent US20240343823A1 (Ablynx, published 2024)
Like-named read-outs stand apart in the source and are kept apart here.

Experiments:
[1] = biological target: T1, human GPC3 on tumor cell lines (HepG2, Huh-7, NCI-H661, MKN-45, NCI-H23, BxPC-3, NCI-H292) (human, UniProt P51654 25-554); test: cell-based or functional assay
[2] = biological target: T2, cyno GPC3 expressed on CHO Flp-In cells (cynomolgus); test: flow cytometry on CHO Flp-In cyno GPC3 cells
T2 construct: range 3-559; On cells; also called cyGPC3 CHO; CHO-cGPC3

[3] = biological target: T1, human GPC3 on tumor cell lines (HepG2, …); test: flow cytometry on HepG2 cells
[4] = biological target: T1, human GPC3 on tumor cell lines (HepG2, …); test: flow cytometry on Huh-7 cells
[5] = biological target: T3, human GPC3 expressed on CHO Flp-In cells (human, UniProt P51654 25-554); test: flow cytometry, periplasmic extract on CHO Flp-In human GPC3 against parental CHO
T3 construct: On cells; Q25-R358, S359-H580; also called hGPC3 CHO; CHO huGPC3
Protocol: (§1) Periplasmic extracts were screened for human and cyno GPC3 binding in flow cytometry using CHO Flp-In cells (Invitrogen cat nr. K6010) expressing either human GPC3 (accession number P51654; Q25-R358, S359-H580) or cyno GPC3 (accession number P51654; Q3-R358; S359-H559), respectively. In brief, 1×10⁵ cells were incubated in 1:5 diluted periplasmic extracts for 30 min at 4° C., and then washed 3 times. As a control, the parental CHO Flp-In cell line (Invitrogen cat nr. K6010) was included. […] Samples were washed and resuspended in FACS Buffer (D-PBS (Gibco) with 10% FBS (Sigma) and 0.05% sodium azide (Merck)) supplemented with 5 nM TOPRO3 (Molecular Probes, cat nr T3605). Cell suspensions were then analyzed on a FACS Array. Gating was set on live, intact cells using forward/side scatter and TOPRO3 channel fluorescence parameters.

[6] = biological target: T4, cyno Glypican-3 delta-GPI-HIS, in-house produced (cynomolgus); test: SPR ProteOn XPR36, periplasmic extract over coated cyno GPC3
T4 construct: range 3-559; also called cyno GPC3; cyGPC3
Protocol: (§2) Off-rates of ISVDs were determined on a ProteOn XPR36 instrument (Bio-Rad Laboratories, Inc.). ProteOn GLC Sensor Chips were coated with cyno Glypican-3 AGPI-HIS (in-house produced; accession number P51654; Q3-R358; S359-H559) and human GPC3 (R&D Systems, cat nr. 2119-GP). Periplasmic extracts were diluted 1:10 in ProteOn PBS Tween buffer (PBS, pH 7.4, 0.005% Tween 20 (167-2720, BioRad)). Experiments were carried out at 25° C. Data obtained was double referenced by reference lane subtraction as well as subtraction of a blank buffer injection. Processed curves were used for off-rate analysis based on the Langmuir dissociation (off-rate analysis) model.

[7] = biological target: T5, recombinant human Glypican-3 (R&D Systems, cat nr. 2119-GP) (human, UniProt P51654 25-559); test: SPR ProteOn XPR36, periplasmic extract over coated human GPC3
T5 construct: Bought protein; also called human GPC3; hGPC3
Protocol: as §2

[8] = biological target: T2, cyno GPC3 expressed on CHO Flp-In cells; test: flow cytometry, periplasmic extract on CHO Flp-In cyno GPC3 against parental CHO
Protocol: as §1

[9] = biological target: T2, cyno GPC3 expressed on CHO Flp-In cells; test: flow cytometry on CHO Flp-In cyno GPC3 cells; remark: listed apart in the source
[10] = biological target: T1, human GPC3 on tumor cell lines (HepG2, …); test: flow cytometry on HepG2 and Huh-7 cells
Protocol: as §1
Variants were evaluated for binding to HepG2, Huh-7 and CHO Flip-In cyno-GPC3 cells by flow cytometry, as described in Example 1.

[11] = biological target: T1, human GPC3 on tumor cell lines (HepG2, …); test: flow cytometry on Huh-7 cells; remark: listed apart in the source
[12] = biological target: T1, human GPC3 on tumor cell lines (HepG2, …); test: flow cytometry on HepG2 cells; remark: listed apart in the source
[13] = biological target: T2, cyno GPC3 expressed on CHO Flp-In cells; test: flow cytometry on CHO Flp-In cyno GPC3 cells; remark: listed apart in the source
[14] = biological target: T6, cyno serum albumin (in house produced from animal tissue) (cynomolgus); test: SPR ProteOn XPR36, serum albumin immobilized by amine coupling, 1:1 model
T6 construct: also called cynomolgus serum albumin
Protocol: (§3) Serum albumin proteins were immobilized on a GLC Sensor Chip (Biorad) via amine coupling, using EDC and NHS chemistry (running buffer: HBS-EP+, pH 7.4). Purified ISVDs were injected for 2 minutes (flow rate 45 μL/min) at different concentrations (between 0.24 nM and 500 nM) and dissociation was followed for 900 s. Regeneration was performed by injecting 10 mM Glycine-HCl (pH 1.5) for 47 seconds (flow rate 100 μL/min). Data was double referenced by subtracting a reference ligand lane and a blank buffer injection. Processed sensorgrams were analyzed based on the 1:1 interaction model (Langmuir binding model) using ProteOn Manager 3.1.0 (Version 3.1.0.6) software.

[15] = biological target: T7, human serum albumin (Sigma cat no A8763) (human, UniProt P02768 25-609); test: as above
T7 construct: also called HSA
Protocol: as §3

[16] = biological target: mouse serum albumin (DivBioScience cat no IMSA) (mouse, UniProt P07724 25-608); test: as above
Protocol: as §3

T6 sequence (A2V9Z4 25-608): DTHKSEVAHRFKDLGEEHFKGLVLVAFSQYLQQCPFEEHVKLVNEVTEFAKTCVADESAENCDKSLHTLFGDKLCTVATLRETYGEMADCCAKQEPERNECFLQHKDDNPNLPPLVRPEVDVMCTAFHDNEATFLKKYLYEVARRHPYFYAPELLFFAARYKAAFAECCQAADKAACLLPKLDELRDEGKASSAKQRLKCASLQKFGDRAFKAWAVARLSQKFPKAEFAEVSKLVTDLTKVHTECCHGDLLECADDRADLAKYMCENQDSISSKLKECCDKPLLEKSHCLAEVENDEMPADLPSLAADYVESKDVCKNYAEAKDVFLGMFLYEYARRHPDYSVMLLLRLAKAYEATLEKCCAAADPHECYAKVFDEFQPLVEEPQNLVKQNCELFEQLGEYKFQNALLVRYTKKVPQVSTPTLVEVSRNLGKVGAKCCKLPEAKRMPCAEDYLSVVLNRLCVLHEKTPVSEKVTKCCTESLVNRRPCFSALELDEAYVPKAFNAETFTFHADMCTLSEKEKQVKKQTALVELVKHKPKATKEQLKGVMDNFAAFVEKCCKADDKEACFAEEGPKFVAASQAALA
Sequence of mouse serum albumin (DivBioScience cat no IMSA) (P07724 25-608 limits assumed): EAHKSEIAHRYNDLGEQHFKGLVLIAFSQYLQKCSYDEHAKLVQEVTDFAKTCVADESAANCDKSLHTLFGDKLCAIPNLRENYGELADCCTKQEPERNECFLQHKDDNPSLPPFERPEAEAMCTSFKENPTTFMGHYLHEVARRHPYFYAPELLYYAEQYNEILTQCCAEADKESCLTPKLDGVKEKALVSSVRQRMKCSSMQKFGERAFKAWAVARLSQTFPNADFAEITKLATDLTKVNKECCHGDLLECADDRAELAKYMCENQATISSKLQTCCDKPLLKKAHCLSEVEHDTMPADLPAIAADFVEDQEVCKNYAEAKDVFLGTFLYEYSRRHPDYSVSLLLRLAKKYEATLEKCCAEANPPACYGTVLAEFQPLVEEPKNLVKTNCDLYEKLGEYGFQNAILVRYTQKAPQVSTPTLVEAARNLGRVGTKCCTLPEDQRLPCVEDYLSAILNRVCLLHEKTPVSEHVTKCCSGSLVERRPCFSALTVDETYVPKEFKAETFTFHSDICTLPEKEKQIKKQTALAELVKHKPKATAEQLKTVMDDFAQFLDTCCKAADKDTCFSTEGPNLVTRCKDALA

B1: A022600031 (bispecific antibody)
chain: DVQLVESGGGLVQPGGSLRLSCVASGDVHKINFLGWYRQAPGKEREKVAHISIGDQTDYADSAKGRFTISRDESKNMVYLQMNSLKPEDTAVYFCRAFSRIYPYDYWGQGTLVTVSSGGGGSGGGGSGGGGSGGGGSGGGGSGGGGSGGGGSEVQLVESGGGLVQAGGSLRLSCVASGSIFRSVFSSSTMEWYRQPPGKKRELVARIAPGDGTNYGALYADSVKGRFTISRDDAKKTVDLQMNSLKPEDTGVYFCASGVAWGQGTLVTVSSGGGGSGGGGSGGGGSGGGGSGGGGSGGGGSGGGGSEVQLVESGGGVVQPGGSLRLSCAASGLTFSSYAMGWFRQAPGKERERVVSISRGGGYTYYADSVKGRFTISRDNSENTVYLQMNSLRPEDTALYYCAAARYWATGSEYEFDYWGQGTLVTVSS
IC50 (M), Incucyte human TDC HepG2-Nuclight green assay [1]: 1.5e-08 M

B2: A0226018C08 (VHH)
VHH: EVQLVESGGGLVQPGGSLRLSCVASGFTFSSFAMTWVRRPPGKGLEWVATITNGGVTSYRDSVKGRFTISRDNAKNTLYLEMTSLNPEDTAVYICANARRTGPRAPTDIGSYRGQGTLVTVSS
notes: Parental ISVD; also called A02260018C08; anti-GPC3 ISVD
EC50 [2]: 0.49 nM | EC50 [3]: 0.915 nM | EC50 [4]: 0.696 nM | Ratio MFI hGPC3 CHO/CHO [5]: 159 | koff [6]: 0.0011 s⁻¹ | koff [7]: 0.00097 s⁻¹ | Ratio MFI cyGPC3 CHO/CHO [8]: 19.9

B3: A022600351 (VHH)
VHH: EVQLVESGGGVVQPGGSLRLSCAASGFTFSSFAMTWVRRPPGKGLEWVATITNKGVTSYADSVKGRFTISRDNAKNTLYLQMNSLRPEDTALYICANARRTGPRAPTDIGSYRGQGTLVTVSS
notes: also called A0226000351
EC50 [2]: 0.21 nM | fold increase in binding potency against parental A0226018C08 [9]: 2 fold | EC50 [3]: 0.431 nM | fold increase in binding potency against parental A0226018C08 [10]: 2 fold | EC50 [4]: 0.477 nM

B4: A022600314 (VHH)
VHH: EVQLVESGGGVVQPGGSLRLSCAASGSIFRSVFSSSTMEWYRQAPGKKRELVARIAPGEGTYYGALYADSVKGRFTISRDNAKNTVYLQMNSLRPEDTALYYCASGVAWGQGTLVTVSS
notes: also called A0226000314
fold decrease in binding potency against parental A0226015A08 [9]: < 2 fold | EC50 [11]: 9.3 nM | fold decrease in binding potency against parental A0226015A08 [10]: < 2 fold | EC50 [12]: 16 nM | EC50 [13]: 12 nM

B5: A022600027 (other)
chain: DVQLVESGGGLVQPGGSLRLSCVASGDVHKINFLGWYRQAPGKEREKVAHISIGDQTDYADSAKGRFTISRDESKNMVYLQMNSLKPEDTAVYFCRAFSRIYPYDYWGQGTLVTVSSGGGGSGGGGSGGGGSGGGGSGGGGSGGGGSGGGGSEVQLVESGGGLVQPGGSLRLSCVASGFTFSSFAMTWVRRPPGKGLEWVATITNGGVTSYRDSVKGRFTISRDNAKNTLYLEMTSLNPEDTAVYICANARRTGPRAPTDIGSYRGQGTLVTVSSGGGGSGGGGSGGGGSGGGGSGGGGSGGGGSGGGGSEVQLVESGGGVVQPGGSLRLSCAASGLTFSSYAMGWFRQAPGKERERVVSISRGGGYTYYADSVKGRFTISRDNSENTVYLQMNSLRPEDTALYYCAAARYWATGSEYEFDYWGQGTLVTVSS
IC50 (M), Incucyte human TDC HepG2-Nuclight green assay [1]: 8.6e-09 M

B6: ALB223 (VHH)
VHH: EVQLVESGGGVVQPGGSLRLSCAASGFTFRSFGMSWVRQAPGKGPEWVSSISGSGSDTLYADSVKGRFTISRDNSKNTLYLQMNSLRPEDTALYYCTIGGSLSRSSQGTLVTVSS
notes: also called ALB23002-A
Kd [14]: 0.57 nM | Kd [15]: 0.88 nM | Kd [16]: 5.3 nM

B7: A0226015A08 (VHH)
VHH: EVQLVESGGGLVQAGGSLRLSCVASGSIFRSVFSSSTMEWYRQPPGKKRELVARIAPGDGTNYGALYADSVKGRFTISRDDAKKTVDLQMNSLKPEDTGVYFCASGVAWGQGTLVTVSS
notes: Parental ISVD; also called A02260015A08; anti-GPC3 ISVD
EC50 [11]: 6.6 nM | Ratio MFI hGPC3 CHO/CHO [5]: 58.2 | EC50 [12]: 7.5 nM | koff [6]: 0.0004 s⁻¹ | EC50 [13]: 7.8 nM | koff [7]: 0.00033 s⁻¹ | Ratio MFI cyGPC3 CHO/CHO [8]: 13.7
